Positions count from the first letter of the chain named. Names and notes keep the numbering of the source.
B1: Bis-40E9-L2H3 (bispecific antibody, human IgG1, kappa, L234A L235A)
heavy 1: not shown
heavy 2: EVQLVQSGAEVKKPGASVKVSCKASGYTFTSYVIHWVRQAPGQGLEWMGYFNPYNDGTKYNEEFKGRVTLTSDKSTSTAYMELRSLRSDDTAVYYCARGGVRRYFDVWGQGTTVTVSSASTKGPSVFPLAPSSKSTSGGTAALGCLVKDYFPEPVTVSWNSGALTSGVHTFPAVLQSSGLYSLSSVVTVPSSSLGTQTYICNVNHKPSNTKVDKKVEPKSCGGGGSGGGGSEVQLVQSGAEVKKPGSSVKVSCKASGYTFSSYVIHWVRQAPGQCLEWMGYINPYNDVIKYNEKFKGRVTLTSDKSTSTAYMELSSLRSEDTAVYYCARDSYYSYDGFAYWGQGTLVTVSSGGGGSGGGGSGGGGSGGGGSEIVLTQSPDFQSVTPKEKVTITCSASSSVSYMHWYQQKPDQSPKRLIYDTSKLASGVPSRFSGSGSGTDFTLTINSLEAEDAATYYCQQWSSNPPTFGCGTKVEIKGGGGSGGGGSDKTHTCPPCPAPEAAGGPSVFLFPPKPKDTLMISRTPEVTCVVVDVSHEDPEVKFNWYVDGVEVHNAKTKPREEQYNSTYRVVSVLTVLHQDWLNGKEYKCKVSNKALPAPIEKTISKAKGQPREPQVCTLPPSREEMTKNQVSLSCAVKGFYPSDIAVEWESNGQPENNYKTTPPVLDSDGSFFLVSKLTVDKSRWQQGNVFSCSVMHEALHNHYTQKSLSLSPGK
light: DIQMTQSPSSLSASVGDRVTITCRASQDIGSNLNWLQQKPGKAIKRLIYATFGLDSGVPSRFSGSRSGTDFTLTISSLQPEDFATYYCQQYASFPYTFGGGTKVEIKRTVAAPSVFIFPPSDEQLKSGTASVVCLLNNFYPREAKVQWKVDNALQSGNSQESVTEQDSKDSTYSLSSTLTLSKADYEKHKVYACEVTHQGLSSPVTKSFNRGEC
B2: Bis-40E9-L2H7 (bispecific antibody)
heavy 1: not shown
heavy 2: B1 heavy 2 with Y285G, D287G, Y333S
light: B1 light
notes: Fab-scFv-Fab format with LALA mutations
B3: Bis-40E9-L2H11 (bispecific antibody)
heavy 1: not shown
heavy 2: B1 heavy 2 with D336R, G337A
light: B1 light
notes: Fab-scFv-Fab format with LALA mutations; copies: 1 + 1 + 2
B4: Bis-40E9-L2H14 (bispecific antibody)
heavy 1: not shown
heavy 2: B1 heavy 2 with D330E
light: B1 light
notes: as for B3
B5: Bis-40E9-L2H3-Y101F.H (bispecific antibody)
heavy 1: not shown
heavy 2: B1 heavy 2 with Y332F
light: B1 light
notes: as for B2
B6: Bis-40E9-L2H16 (bispecific antibody)
heavy 1: not shown
heavy 2: B1 heavy 2 with S262D
light: B1 light
notes: as for B3
B7: Bis-40E9-L2H1 (bispecific antibody)
heavy: EVQLVQSGAEVKKPGASVKVSCKASGYTFTSYVIHWVRQAPGQGLEWMGYFNPYNDGTKYNEEFKGRVTLTSDKSTSTAYMELRSLRSDDTAVYYCARGGVRRYFDVWGQGTTVTVSS
heavy (part 1 of 2): B7 heavy
heavy (part 2 of 2): GGGGSGGGGSEVQLVQSGAEVKKPGSSVKVSCKASGGTFSSYVIHWVRQAPGQCLEWMGYINPYNDVIKYNEKFKGRVTITADKSTSTAYMELSSLRSEDTAVYYCARDSYYSYDGFAYWGQGTLVTVSSGGGGSGGGGSGGGGSGGGGSEIVLTQSPDFQSVTPKEKVTITCSASSSVSYMHWYQQKPDQSPKRLIYDTSKLASGVPSRFSGSGSGTDFTLTINSLEAEDAATYYCQQWSSNPPTFGCGTKVEIKGGGGSGGGGS
light: DIQMTQSPSSLSASVGDRVTITCRASQDIGSNLNWLQQKPGKAIKRLIYATFGLDSGVPSRFSGSRSGTDFTLTISSLQPEDFATYYCQQYASFPYTFGGGTKVEIK
notes: Fab-scFv-Fab (2+1), LALA; not shown: CH1; CL; CH2-CH3 with L234A, L235A; heavy chain constant region with L234A, L235A
B8: Bis-40E9-L2H3 (bispecific antibody, human IgG1, kappa, L234A L235A)
heavy 1: not shown
heavy 2: B1 heavy 2
light: B1 light
notes: Fab-scFv-Fab, LALA; also called humanized 2+1 bispecific antibody with scFv 40E9-L2H3

biological target: T1, CD3 on Jurkat cells (UniProt P07766 23-207; P04234 22-171; P09693 23-182); assay: FACS on Jurkat cells
T1 construct: whole, on cells; On the cell, CD3 stands in the TCR-CD3 complex; also called cluster of differentiation 3
T1 sequence (P07766 23-207, chain 1 of 3): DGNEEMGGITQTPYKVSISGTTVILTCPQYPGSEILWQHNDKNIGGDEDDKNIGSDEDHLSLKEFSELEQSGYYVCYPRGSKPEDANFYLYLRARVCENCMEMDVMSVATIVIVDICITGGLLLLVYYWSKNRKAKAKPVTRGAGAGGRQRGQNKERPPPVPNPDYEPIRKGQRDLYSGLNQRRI
T1 sequence (P04234 22-171, chain 2 of 3): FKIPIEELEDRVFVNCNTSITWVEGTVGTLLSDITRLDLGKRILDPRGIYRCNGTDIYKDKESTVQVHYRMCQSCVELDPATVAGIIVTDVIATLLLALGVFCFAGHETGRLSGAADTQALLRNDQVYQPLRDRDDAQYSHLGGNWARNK
T1 sequence (P09693 23-182, chain 3 of 3): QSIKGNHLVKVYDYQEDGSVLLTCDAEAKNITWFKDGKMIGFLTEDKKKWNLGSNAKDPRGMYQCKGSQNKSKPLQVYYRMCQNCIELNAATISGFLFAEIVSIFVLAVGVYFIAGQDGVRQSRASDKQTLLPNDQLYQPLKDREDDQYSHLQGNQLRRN
Procedure: (§1) The binding affinities of the generated humanized Fab-scFv-Fab bispecific antibodies were determined by FACS analysis. […] (a) Jurkat cells were washed by Staining Buffer (PBS+1% BSA) in round bottom 96-well plate. [0833] (b) Antibody dilutions and cells were added to each well, incubated at 4 degrees for 1 hour. [0834] (c) Cells were spined down at 300 g for 3 minutes, and the supernatants were discarded. [0835] (d) Cells were washed with Staining Buffer. […] (e) Step (d) was repeated and the cells were incubated for 0.5 hours at 4 degrees with secondary antibody in Staining Buffer. [0837] (f) After incubation, step (d)-(e) were repeated. […] (g) Staining Buffer was added and fluorescence signals were recorded by flow cytometry.
The binding affinities of the generated humanized Fab-scFv-Fab bispecific antibodies were determined by FACS analysis. The protocol for FACS analysis is identical to that described in Example 3.2, except that different test antibodies were used.

Row | Binder | Ratio of EC50 (relative to ATG-Bis-40E9) | Ratio of Top MFI (relative to ATG-Bis-40E9)
1 | B1 | 1.65 ratio | 0.77 ratio
2 | B2 | 1.24 ratio | 0.68 ratio
3 | B3 | 7.88 ratio | 6.35 ratio
4 | B4 | 2.31 ratio | 0.83 ratio
5 | B5 | 13.6 ratio | 
6 | B6 | 2.97 ratio | 0.62 ratio

biological target: T2, GPRC5D on MM.1S cells (human, UniProt Q9NZD1 1-345); assay: FACS on MM.1S cells
T2 construct: whole, on cells; MM.1S is called a GPRC5D positive expressed cell line and human multiple myeloma cells; also called G-protein coupled receptor family C group 5 member D
T2 sequence (Q9NZD1 whole entry): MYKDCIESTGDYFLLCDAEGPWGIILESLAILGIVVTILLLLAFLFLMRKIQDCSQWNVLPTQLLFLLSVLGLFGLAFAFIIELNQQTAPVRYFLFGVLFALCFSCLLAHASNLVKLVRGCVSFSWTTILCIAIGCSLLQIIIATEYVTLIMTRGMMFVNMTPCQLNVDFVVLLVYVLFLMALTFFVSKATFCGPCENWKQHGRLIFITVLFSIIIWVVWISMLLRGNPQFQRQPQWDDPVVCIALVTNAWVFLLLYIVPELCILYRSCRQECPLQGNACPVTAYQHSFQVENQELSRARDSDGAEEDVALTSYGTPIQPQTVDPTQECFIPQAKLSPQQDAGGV
Procedure: To evaluate the binding affinity of the generated chimeric bispecific antibody to T cells, the isolated CD3⁺ T cells were stained by antibodies and the binding affinity was determined by FACS analysis. The protocol of FACS analysis is described as follows: [0785] (a) CD3⁺ T cells were isolated from normal donors. [0786] (b) The isolated CD3⁺ T cells were washed by Staining Buffer (PBS+1% BSA) in round bottom 96-well plate. […] (c) Antibody dilutions were added to each well and mixed with the CD3+ T cells, incubated at 4 degrees for 1 hour. […] (d) Cells were spined at 300 g for 3 minutes, then the supernatants were discarded. [0789] (e) Cells were washed with Staining Buffer. [0790] (f) Step (d) was repeated, and the cells were incubated with secondary antibody in Staining Buffer for 0.5 hours at 4 degrees. [0791] (g) After incubation, step (d)-(e) were repeated. [0792] (h) Cells were resuspended in Staining Buffer and fluorescence signals were recorded by flow cytometry.
The binding affinities of the generated humanized Fab-scFv-Fab bispecific antibodies to MM.1S were evaluated by FACS analysis. The protocol for FACS analysis is identical to that described in Example 1.2, except that MM.1S were used in this example.

Row | Binder | Ratio of EC50 (relative to ATG-Bis-40E9) | Ratio of Top MFI (relative to ATG-Bis-40E9)
7 | B1 | 1.19 ratio | 0.997 ratio
8 | B2 | 2.5 ratio | 1.25 ratio
9 | B3 | 5.78 ratio | 1.47 ratio
10 | B4 | 1.02 ratio | 0.975 ratio
11 | B5 | 1.27 ratio | 0.954 ratio
12 | B6 | 0.913 ratio | 0.972 ratio

biological target: T3, GPRC5D (G-protein coupled receptor family C group 5 member D), human, on multiple myeloma cell lines (human, UniProt Q9NZD1 1-345); assay: cell-based or functional assay
T3 sequence (Q9NZD1 whole entry): as above

Row | Binder | IC50 (nM), T-Cell Dependent Cytotoxicity, MM.1S | IC50 (nM), T-Cell Dependent Cytotoxicity, MOLP-8 | IC50 (nM), T-Cell Dependent Cytotoxicity, RPMI8226 | Top (%), T-Cell Dependent Cytotoxicity, MM.1S | Top (%), T-Cell Dependent Cytotoxicity, MOLP-8 | Top (%), T-Cell Dependent Cytotoxicity, RPMI8226
13 | B7 | 0.0437 nM | 0.0069 nM | 0.356 nM | 56.3% | 58.3% | 25.9%
14 | B8 | 0.00571 nM | 0.00166 nM | 0.06 nM | 66.8% | 71.9% | 11.5%

biological target: T4, CD3 (Cluster of Differentiation 3 protein), human, on T cells / Jurkat cells (human, UniProt P07766 23-207; P04234 22-171; P09693 23-182); assay: FACS, Jurkat cells, antibody at 50 µg/ml
T4 construct: whole, on cells; part of the TCR-CD3 complex; also called human CD3
T4 sequence (P07766 23-207, chain 1 of 3): as the sequence (P07766 23-207, chain 1 of 3) above
T4 sequence (P04234 22-171, chain 2 of 3): as the sequence (P04234 22-171, chain 2 of 3) above
T4 sequence (P09693 23-182, chain 3 of 3): as the sequence (P09693 23-182, chain 3 of 3) above
Procedure: as §1

Row | Binder | MFI (50 µg/ml)
15 | B7 | 113 MFI
16 | B8 | 341 MFI

biological target: T2, GPRC5D on MM.1S cells; assay: cell-based or functional assay

Row | Binder | Ratio of IC50 (relative to ATG-Bis-40E9), MM.1S cytotoxicity | Ratio of Top cytotoxicity (relative to ATG-Bis-40E9), MM.1S cytotoxicity
17 | B1 | 0.23 ratio | 1.04 ratio
18 | B2 | 3.21 ratio | 0.98 ratio
19 | B3 | 13.7 ratio | 1 ratio
20 | B4 | 10.4 ratio | 0.98 ratio
21 | B5 | 1.94 ratio | 1.03 ratio
22 | B6 | 4.93 ratio | 0.98 ratio

biological target: T2, GPRC5D on MM.1S cells; assay: cell-based or functional assay; remark: another data set of the same source

Row | Binder | Ratio of EC50 (relative to ATG-Bis-40E9), luciferase assay on MM.1S | Ratio of Top RLU (relative to ATG-Bis-40E9), luciferase assay on MM.1S
23 | B1 | 3.25 ratio | 1.09 ratio
24 | B2 | 2.79 ratio | 0.85 ratio
25 | B3 | 26.2 ratio | 1.24 ratio
26 | B4 | 5.77 ratio | 0.81 ratio
27 | B5 | 4.89 ratio | 1.57 ratio
28 | B6 | 6.02 ratio | 0.84 ratio

biological target: T3, GPRC5D (G-protein coupled receptor …); assay: cell-based or functional assay; remark: another data set of the same source

Row | Binder | EC50 (nM), luciferase assay, L363 | EC50 (nM), luciferase assay, MM.1S | EC50 (nM), luciferase assay, MOLP-8 | EC50 (nM), luciferase assay, RPMI8226 | Top (RLU), luciferase assay, L363 | Top (RLU), luciferase assay, MM.1S | Top (RLU), luciferase assay, MOLP-8 | Top (RLU), luciferase assay, RPMI8226
29 | B7 | 0.258 nM | 0.18 nM | 0.00654 nM | 1.05 nM | 898 RLU | 2510 RLU | 1190 RLU | 261 RLU
30 | B8 |  | 0.0898 nM |  |  |  | 1940 RLU | 221 RLU | 
